The target of assay [1] is T1, His10-hTfR1 (SEQ ID NO:109) (human, UniProt P02786 90-760).
T1 construct: Recombinant, HEK293; also called His-tagged hTfR1; His-tagged hTfR
Briefly: ELISA, hybridoma supernatant. In general terms: ELISA stands for enzyme-linked immunosorbent assay.

In assay [2] the target is T2, ectodomain of human TfR1 (His10-hTfR1; SEQ ID NO:110) (human, UniProt P02786 89-760).
T2 construct: also called ectodomain of hTfR1
As to the kind of experiment: indirect ELISA: plate coated with 1 µg/ml hTfR1 ectodomain, mouse IgG titrated, anti-mouse IgG-HRP; x axis printed as 'TfR (ng/ml)'. As to the method: (§1) In the ELISA experiment, human, mouse or three different chimeric TfR1 receptors were used to coat ELISA plates (FIGS. 30A-30E). The ELISA protocol was slightly modified as follows from the indirect ELISA described in Example 15. […] The coated plates were then blocked. Dilution series of mouse IgG of the analyzed antibodies were prepared in PBS and incubated on the ELISA plates. Unbound antibodies were then washed off before incubating wells with a HRP-conjugated secondary, anti-mouse-IgG for 1 h. Plates were then washed again before addition of HRP substrate TMB for development and detection of antibody binding to the wells. TMB development was stopped by adding 0.5 M H₂SO₄ to the wells and ELISA responses measured as the OD at 450 nm in an ELISA plate reader.

Assay [3] concerns the target T3, hTfR1 (recombinant, construct not specified) (human, UniProt P02786 89-760, limits assumed).
T3 construct: also called biotinylated hTfR1
Briefly: BLI: IgG captured from hybridoma supernatant on anti-mouse capture sensors, 250 nM hTfR1 in solution, 120 s association, 90 s dissociation. As to the method:
Next, sensors with immobilized IgGs were briefly washed for 10 s before incubation in running buffer to establish a baseline signal. […] All proteins were diluted in running buffer. Target dissociation was measured by incubating the biosensors in running buffer for 90 s.

The target in assay [4] is T4, h/m apical domain chimera (SEQ ID NO:112) (human/mouse chimera).
T4 construct: also called chimeric TfR1 consisting of human apical domain grafted on mouse TfR1 ectodomain
T4 chain: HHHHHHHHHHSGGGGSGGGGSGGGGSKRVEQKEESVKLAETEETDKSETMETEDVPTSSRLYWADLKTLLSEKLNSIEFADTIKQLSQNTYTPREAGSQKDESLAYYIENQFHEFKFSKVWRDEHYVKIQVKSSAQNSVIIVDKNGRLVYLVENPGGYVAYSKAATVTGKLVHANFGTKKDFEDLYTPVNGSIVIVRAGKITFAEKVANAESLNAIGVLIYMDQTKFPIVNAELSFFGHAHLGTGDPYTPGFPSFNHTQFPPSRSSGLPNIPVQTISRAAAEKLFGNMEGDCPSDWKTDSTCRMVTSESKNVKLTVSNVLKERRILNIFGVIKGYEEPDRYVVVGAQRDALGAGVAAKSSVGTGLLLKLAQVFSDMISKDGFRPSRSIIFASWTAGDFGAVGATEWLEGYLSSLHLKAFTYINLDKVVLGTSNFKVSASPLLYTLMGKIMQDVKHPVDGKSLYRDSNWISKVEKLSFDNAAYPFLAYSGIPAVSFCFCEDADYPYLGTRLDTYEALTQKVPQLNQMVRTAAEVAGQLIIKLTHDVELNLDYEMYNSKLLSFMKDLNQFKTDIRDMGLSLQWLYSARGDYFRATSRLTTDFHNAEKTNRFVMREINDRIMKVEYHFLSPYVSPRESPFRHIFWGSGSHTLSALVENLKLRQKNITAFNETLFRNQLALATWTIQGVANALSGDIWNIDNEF
Briefly: indirect ELISA: plate coated with 1 µg/ml h/m apical domain chimera, mouse IgG titrated, anti-mouse IgG-HRP; x axis printed as 'TfR (ng/ml)'. As to the method: Plasma samples serially diluted from a starting dilution of 1/450 or hybridoma supernatants diluted 1/2 were added to the plates (50 μl/well; dilution buffer: PBS with 0.1% BSA and 0.05% TWEEN®-20) and incubated for 2 h at room temperature and then the plates were washed four times. […] After another wash (as above), 50 μl/well TMB substrate (K-Blue® Aqueous, Neogen) was added, and the reaction was stopped after 10-15 min with 50 μl/well of 0.5 M H₂SO₄. The optical density at 450 nm was read using a plate reader (Tecan). The endpoint titers were defined as the dilution above the average of the blank wells (background) plus 3 standard deviations of the blank wells.
as §1

For assay [5], the target named is T5, h/m helical domain chimera (SEQ ID NO:113) (human/mouse chimera, UniProt Q62351 90-763 (mouse entry)).
T5 construct: also called chimeric TfR1 consisting of human helical domain grafted on mouse TfR1 ectodomain
T5 chain: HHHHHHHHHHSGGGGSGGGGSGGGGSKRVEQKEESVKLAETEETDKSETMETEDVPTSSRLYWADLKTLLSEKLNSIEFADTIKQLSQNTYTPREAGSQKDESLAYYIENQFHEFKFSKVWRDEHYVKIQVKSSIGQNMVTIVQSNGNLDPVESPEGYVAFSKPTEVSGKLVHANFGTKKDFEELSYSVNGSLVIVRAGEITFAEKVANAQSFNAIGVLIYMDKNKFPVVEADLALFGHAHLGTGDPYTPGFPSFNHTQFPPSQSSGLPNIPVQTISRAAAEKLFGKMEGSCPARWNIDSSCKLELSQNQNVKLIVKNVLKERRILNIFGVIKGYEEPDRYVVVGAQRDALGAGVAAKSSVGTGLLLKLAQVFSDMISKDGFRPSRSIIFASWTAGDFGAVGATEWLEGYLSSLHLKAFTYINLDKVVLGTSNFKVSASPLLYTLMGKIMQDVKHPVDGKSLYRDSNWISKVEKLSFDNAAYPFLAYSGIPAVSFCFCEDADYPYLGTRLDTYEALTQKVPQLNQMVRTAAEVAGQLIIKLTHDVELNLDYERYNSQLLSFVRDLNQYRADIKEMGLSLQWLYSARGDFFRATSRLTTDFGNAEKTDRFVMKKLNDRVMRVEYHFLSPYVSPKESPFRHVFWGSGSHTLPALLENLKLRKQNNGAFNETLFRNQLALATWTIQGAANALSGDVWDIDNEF
As to the kind of experiment: indirect ELISA: plate coated with 1 µg/ml h/m helical domain chimera, mouse IgG titrated, anti-mouse IgG-HRP; x axis printed as 'TfR (ng/ml)'. The protocol:
as §1

The source of these data is patent US20250388664A1 (BIOARCTIC, published 2025).

B1: 37D10 (antibody, V domains shown)
VH: QVQLQQSGAELVRPGTSVKISCKASGYAFTNYWLGWVKQRPGHGLEWIGDIFPGSDNTYYNEKFKGKATLTADKSSSTAYMQLSSLASEDSAVYFCARSGNFYAMDYWGQGTSVTVSS
VL: ENVLTQSPAIMSASPGEKVTMTCSASSSVNYMNWYQQKSSTFPKLWIYDTSKLASGVPGRFSGSGSGKFYSLTISSMEAEDVATYYCFQGSGYPFTFGSGTKLEIK
notes: also called mouse antibody 37D10; clone 37D10
Turning to B1, the binding result in assay [1] is “binds”; in assay [2] it was “binds”; in assay [3], “binds”; in assay [4], “no binding (tested: about 600 ng/ml)”; in assay [5], “no binding (tested: about 600 ng/ml)”.
